Columns and labels:
[1] = target: wild type human presenilin-1 (PS1) (human, UniProt P49768 1-467); assay: cell-based or functional assay
[2] = target: T1, V5-tagged human Presenilin Associated Membrane Protein (PAMP) (human, UniProt Q92542 34-709); assay: immunoprecipitation from cell lysates, Western blot
T1 construct: Expressed by transfection in HEK293 cells or murine embryonic fibroblasts and tested by co-immunoprecipitation from detergent lysates; Glycosylated (~110 kDa, ~80 kDa after Endo H); also called V5-PAMP; V5-tagged-PAMP

Aβ42/Aβ40 Ratio [1] | binding result [2] | Binder
0.09 normalized to mock transfection |  | PAMPΔ312-369 (other, not shown: small tags and cut ends) NSVERKIYIPLNKTAPCVRLLNATHQIGCQSSISGDTGVIHVVEKEEDLQWVLTDGPNPPYMVLLESKHFTRDLMEKLKGRTSRIAGLAVSLTKPSPASGFSPSVQCPNDGFGVYSNSYGPEFAHCREIQWNSLGNGLAYEDFSFPIFLLEDENETKVIKQCYQDHNLSQNGSAPTFPLCAMQLFSHMHAVISTATCMRRSSIQSTFSINPEIVCDPLSDYNVWSMLKPINTTGTLKPDDRVVVAATRLDSRSFFWNVAPGAESAVASFVTQLAAAEALRTSLELWMHTDPVSQKNESVRNQVEDLLATLEKSGAGVPAVILRRPNQSQPLPPSSLQRFLRARNISGVVLADHSGAFHNKYYQSIYDTAENINVSYPEWLSPEEDLNFVTDTAKALADVATVLGRALYELAGGTNFSDTVQADPQTVTRLLYGFLIKANNSWFQSILRQDLRSYLGDGPLQHYIAVSSPTNTTYVVQYALANLTGTVVNLTREQCQDPSKVPSENKDLYEYSWVQGPLHSNETDRLPRCVRSTARLARALSPAFELSQWSSTEYSTWTESRWKDIRARIFLIASKELELITLTVGFGILIFSLIVTYCINAKADVLFIAPREPGAVSY
 | no binding | calnexin (other, UniProt P27824 21-592, looked up, whole, on cells; The only named member of 'other ER-resident proteins'; also called other ER-resident proteins (e.g., calnexin)) HDGHDDDVIDIEDDLDDVIEEVEDSKPDTTAPPSSPKVTYKAPVPTGEVYFADSFDRGTLSGWILSKAKKDDTDDEIAKYDGKWEVEEMKESKLPGDKGLVLMSRAKHHAISAKLNKPFLFDTKPLIVQYEVNFQNGIECGGAYVKLLSKTPELNLDQFHDKTPYTIMFGPDKCGEDYKLHFIFRHKNPKTGIYEEKHAKRPDADLKTYFTDKKTHLYTLILNPDNSFEILVDQSVVNSGNLLNDMTPPVNPSREIEDPEDRKPEDWDERPKIPDPEAVKPDDWDEDAPAKIPDEEATKPEGWLDDEPEYVPDPDAEKPEDWDEDMDGEWEAPQIANPRCESAPGCGVWQRPVIDNPNYKGKWKPPMIDNPSYQGIWKPRKIPNPDFFEDLEPFRMTPFSAIGLELWSMTSDIFFDNFIICADRRIVDDWANDGWGLKKAADGAAEPGVVGQMIEAAEERPWLWVVYILTVALPVFLVILFCCSGKKQTSGMEYKKTDAPQPDVKEEEEEKEEEKDKGDEEEEGEEKLEEKQKSDAEEDGGTVSQEEEDRKPKAEEDEILNRSPRNRKPRRE
0.59 normalized to mock transfection |  | PAMPΔ312-340 (other, not shown: small tags and cut ends) NSVERKIYIPLNKTAPCVRLLNATHQIGCQSSISGDTGVIHVVEKEEDLQWVLTDGPNPPYMVLLESKHFTRDLMEKLKGRTSRIAGLAVSLTKPSPASGFSPSVQCPNDGFGVYSNSYGPEFAHCREIQWNSLGNGLAYEDFSFPIFLLEDENETKVIKQCYQDHNLSQNGSAPTFPLCAMQLFSHMHAVISTATCMRRSSIQSTFSINPEIVCDPLSDYNVWSMLKPINTTGTLKPDDRVVVAATRLDSRSFFWNVAPGAESAVASFVTQLAAAEASRMVYDMEKGKFPVQLENVDSFVELGQVALRTSLELWMHTDPVSQKNESVRNQVEDLLATLEKSGAGVPAVILRRPNQSQPLPPSSLQRFLRARNISGVVLADHSGAFHNKYYQSIYDTAENINVSYPEWLSPEEDLNFVTDTAKALADVATVLGRALYELAGGTNFSDTVQADPQTVTRLLYGFLIKANNSWFQSILRQDLRSYLGDGPLQHYIAVSSPTNTTYVVQYALANLTGTVVNLTREQCQDPSKVPSENKDLYEYSWVQGPLHSNETDRLPRCVRSTARLARALSPAFELSQWSSTEYSTWTESRWKDIRARIFLIASKELELITLTVGFGILIFSLIVTYCINAKADVLFIAPREPGAVSY

Reference: patent publication US6812337 (GOVERNING COUNCIL OF THE UNIVERSITY OF TORONTO, dated 2004)
